For this assay, the system named is human iPS cells. Description: Proliferation Evaluation of iPS cells on polypeptide-coated plate. It counts as cell-based. Conditions: 5000 cells/well. The protocol: The iPS cells collected in the same manner as in <Cell Adhesiveness Evaluation 1>described above were seeded on a 96-well plate, to which RCP-1, RCP-11, and the natural human vitronectin were adsorbed, at a rate of 250 cells/well, and were cultured in a 5% CO2 incubator at 37° C. for 8 days. The number of adherent cells after each lapse of time was measured by the same method as in <Cell Adhesiveness Evaluation 1> described above, to obtain proliferation curves, The proliferation curves were indicated in FIG. 2. In FIG. 2, a black rhombus represents an example in which RCP-1 was used, while a black tetragon represents an example in which RCP-11 was used.
Similarly, each of samples from […] was prepared so as to have an addition concentration listed in Table 8 with each of from RCP-1 to RCP-10, and RCP-17, and Human Recombinant Laminin-511 as a reference, was seeded on a 96-well plate, to which each polypeptide was adsorbed, at a rate of 5000 cells/well in the same manner as in<Cell Adhesiveness Evaluation 1> described above, and was cultured in a CO2 incubator at 37° C. for 3 days. The number of cells after the 3 days was measured by the same method as in <Cell Adhesiveness Evaluation 1> described above.

We go through eight molecules from patent US10407662B2, “Method of culturing pluripotent stem cell, and polypeptide to be used therefor” (FUJIFILM Corporation, priority 2012, dated 2019).

Regarding “Laminin-511: recombinant laminin (Human Recombinant Laminin-511: Biolamina)”, the “The Number (%) of Cells after 3 Days” value (addition amount 1.28 μg/cm^2) is given as 56.8%.

B1: RCP-17: recombinant polypeptide, Met + SEQ ID NO:38; vitronectin positions 1-55, 269-277, 295-341, 342-373, C274S (printed as RCP-11 in Table 2) (protein)
chain: MDQESCKGRCTEGFNVDKKCQCDELCSYYQSCCTDYTAECKPQVTRGDVFTMPEDESQEESEGSEDIFELLFWGRTSAGTRQPQFISRDWHGVPGQVDAAMAGRIYISGMAPRPSLAKKQRFRHRNRKGYRSQRGHSRGRNQN
modifications: Synthetic Peptide RCP-17
As to B1, for the setting “addition amount 5 μg/cm^2”, the “The Number (%) of Cells after 3 Days” value is recorded as 153.5%.

B2: RCP-8: recombinant polypeptide, Met + human vitronectin positions 1-55, 269-373, 374-379, C274S (protein)
chain: MDQESCKGRCTEGFNVDKKCQCDELCSYYQSCCTDYTAECKPQVTRGDVFTMPEDESQEESEGSSLSAVFEHFAMMQRDSWEDIFELLFWGRTSAGTRQPQFISRDWHGVPGQVDAAMAGRIYISGMAPRPSLAKKQRFRHRNRKGYRSQRGHSRGRNQNSRRPSR
modifications: Synthetic Peptide RCP-8
notes: recombinant polypeptide, Met + human vitronectin positions 1-55, 269-373, 374-379, C274S
As for B2, the “The Number (%) of Cells after 3 Days” value (addition amount 5 μg/cm^2) turned out to be 171.0%.

B3: RCP-6: recombinant polypeptide, Met + human vitronectin positions 1-55, 269-459, C274S (protein)
chain: MDQESCKGRCTEGFNVDKKCQCDELCSYYQSCCTDYTAECKPQVTRGDVFTMPEDESQEESEGSSLSAVFEHFAMMQRDSWEDIFELLFWGRTSAGTRQPQFISRDWHGVPGQVDAAMAGRIYISGMAPRPSLAKKQRFRHRNRKGYRSQRGHSRGRNQNSRRPSRATWLSLFSSEESNLGANNYDDYRMDWLVPATSEPIQSVFFFSGDKYYRVNLRTRRVDTVDPPYPRSIAQYWLGSPAPGHL
modifications: Synthetic Peptide RCP-6
notes: recombinant polypeptide, Met + human vitronectin positions 1-55, 269-459, C274S
For B3, the “The Number (%) of Cells after 3 Days” value (addition amount 20 μg/cm^2) is recorded as 70.5%.

B4: RCP-3: recombinant polypeptide, Met + human vitronectin positions 1-55, 322-341, 342-373 (protein)
chain: MDQESCKGRCTEGFNVDKKCQCDELCSYYQSCCTDYTAECKPQVTRGDVFTMPEDEGVPGQVDAAMAGRIYISGMAPRPSLAKKQRFRHRNRKGYRSQRGHSRGRNQN
modifications: Synthetic Peptide RCP-3
In the case of B4, the “The Number (%) of Cells after 3 Days” value (addition amount 20 μg/cm^2) stood at 109.7%.

B5: RCP-5: recombinant polypeptide, Met + human vitronectin positions 1-55, 302-341, 342-373 (protein)
chain: MDQESCKGRCTEGFNVDKKCQCDELCSYYQSCCTDYTAECKPQVTRGDVFTMPEDEFWGRTSAGTRQPQFISRDWHGVPGQVDAAMAGRIYISGMAPRPSLAKKQRFRHRNRKGYRSQRGHSRGRNQN
modifications: Synthetic Peptide RCP-5
Regarding B5, the “The Number (%) of Cells after 3 Days” value (addition amount 10 μg/cm^2) is 121.2%.

B6: RCP-2: recombinant polypeptide, Met + human vitronectin positions 1-55, 342-373 (protein)
chain: MDQESCKGRCTEGFNVDKKCQCDELCSYYQSCCTDYTAECKPQVTRGDVFTMPEDEPRPSLAKKQRFRHRNRKGYRSQRGHSRGRNQN
modifications: Synthetic Peptide RCP-2
Consider B6, for which, where the note is “addition amount 20 μg/cm^2”, the “The Number (%) of Cells after 3 Days” value turned out to be 81.7%.

B7: RCP-7: recombinant polypeptide, Met + human vitronectin positions 1-55, 269-373, C274S (protein)
chain: MDQESCKGRCTEGFNVDKKCQCDELCSYYQSCCTDYTAECKPQVTRGDVFTMPEDESQEESEGSSLSAVFEHFAMMQRDSWEDIFELLFWGRTSAGTRQPQFISRDWHGVPGQVDAAMAGRIYISGMAPRPSLAKKQRFRHRNRKGYRSQRGHSRGRNQN
modifications: Synthetic Peptide RCP-7
notes: recombinant polypeptide, Met + human vitronectin positions 1-55, 269-373, C274S
In the case of B7, where the note is “addition amount 5 μg/cm^2”, the “The Number (%) of Cells after 3 Days” value is on record as 89.9%.
